Reference: patent US20130012436A1 (Bristol-Myers Squibb, published 2013)

Key:
human IL-23 [1] = molecular target: T1, human IL-23 (human, UniProt Q9NPF7 20-189; P29460 23-328); assay: cell-based or functional assay
T1 sequence (looked up) 1: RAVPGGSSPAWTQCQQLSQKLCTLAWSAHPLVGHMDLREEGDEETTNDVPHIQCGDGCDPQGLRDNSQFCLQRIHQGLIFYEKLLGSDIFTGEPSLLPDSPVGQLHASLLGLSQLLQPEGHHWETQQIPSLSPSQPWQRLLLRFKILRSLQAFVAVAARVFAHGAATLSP
T1 sequence (looked up) 2: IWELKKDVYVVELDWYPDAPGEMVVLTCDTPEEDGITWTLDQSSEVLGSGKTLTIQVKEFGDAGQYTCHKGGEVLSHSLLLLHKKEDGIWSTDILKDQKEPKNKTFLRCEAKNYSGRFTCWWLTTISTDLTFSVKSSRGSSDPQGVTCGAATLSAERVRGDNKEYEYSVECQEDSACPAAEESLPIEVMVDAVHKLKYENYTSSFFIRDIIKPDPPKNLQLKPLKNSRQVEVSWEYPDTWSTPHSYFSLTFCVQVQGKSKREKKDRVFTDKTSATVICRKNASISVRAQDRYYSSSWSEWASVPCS

human IL-23 [2] = molecular target: T1, human IL-23; assay: SPR, Adnectin captured by anti-His mAb, IL-23 injected
Protocol: All surface plasmon experiments were conducted in HBS-EP (10 mM Hepes 150 mM NaCl 3 mM EDTA 0.05% Surfactant P20) at 25° C. IL-23 was injected over anti-His mAb captured Adnectins for 2 minutes followed by a 10 minute dissociation phase. Evaluation of the binding specificity was completed using Biacore T100 evaluation software. Additional detailed methods are described in Example 4.

B1: 1434A08 (designed binder)
chain: MGVSDVPRDLEVVAATPTSLLISWGHYPMHVRYYRITYGETGGNSPVQEFTVPHRTHTATISGLKPGVDYTITVYAVTYYNEADYSQIPISINYRTEIDKPSQHHHHHH
In the case of B1, the “Kit 225 pSTAT3 IC50 (nM)” value (human IL-23 [1]) is reported as 4.9 nM.

B2: 1438E05 (designed binder)
chain: MGVSDVPRDLEVVAATPTSLLISWGHYPMHVRYYRITYGETGGNSPVQEFTVPSNVHTATISGLKPGVDYTITVYAVTYYNEADYSQIPISINYRTEIDKPSQHHHHHH
In the case of B2, the “Kit 225 pSTAT3 IC50 (nM)” value (human IL-23 [1]) is reported as 39.6 nM.

B3: 1438D01 (designed binder)
chain: MGVSDVPRDLEVVAATPTSLLISWGHYPMHVRYYRITYGETGGNSPVQEFTVPNRAHTATISGLKPGVDYTITVYAVTYYNEADYSQIPISINYRTEIDKPSQHHHHHH
With B3 the “Kit 225 pSTAT3 IC50 (nM)” value (human IL-23 [1]) was 11.4 nM.

B4: 1572H08 (designed binder)
chain: MGVSDVPRDLEVVAATPTSLLISWGHYPLHVRYYRITYGETGGNSPVQEFTVPSRKYTATISGLKPGVDYTITVYAVTYYNEADYSQIPISINYRTEIDKPSQHHHHHH
notes: captured by anti-His mAb
For B4, the kon (human IL-23 [2]) was 57300 M⁻¹ s⁻¹ and the “Kit 225 pSTAT3 IC50 (nM)” value (human IL-23 [1]) was 2.8 nM.

B5: 1438B02 (designed binder)
chain: MGVSDVPRDLEVVAATPTSLLISWGHYPMHVRYYRITYGETGGNSPVQEFTVPRKTYTATISGLKPGVDYTITVYAVTYYNEADYSQIPISINYRTEIDKPSQHHHHHH
B5 was tested, and the “Kit 225 pSTAT3 IC50 (nM)” value (human IL-23 [1]) was 8.6 nM.

B6: 1438A09 (designed binder)
chain: MGVSDVPRDLEVVAATPTSLLISWGHYPMHVRYYRITYGETGGNSPVQEFTVPRSRYTATISGLKPGVDYTITVYAVTYYNEADYSQIPISINYRTEIDKPSQHHHHHH
With B6 the “Kit 225 pSTAT3 IC50 (nM)” value (human IL-23 [1]) was 10.8 nM.

B7: 1486D04 (designed binder)
chain: MGVSDVPRDLEVVAATPTSLLISWGHYPLHIRYYRITYGETGGNSPVQEFTVPRSTHTATISGLKPGVDYTITVYAVTYYNEADYSQIPISINYRTEIDKPSQHHHHHH
notes: captured by anti-His mAb
B7 gave a Kd (human IL-23 [2]) of 2.3 nM, a koff (human IL-23 [2]) of 0.000352 s⁻¹ and a kon (human IL-23 [2]) of 151000 M⁻¹ s⁻¹. The “Kit 225 pSTAT3 IC50 (nM)” value (human IL-23 [1]) was 2 nM.

B8: 1490A07 (designed binder)
chain: MGVSDVPRDLEVVAATPTSLLISWGHYPLHIRYYRITYGETGGNSPVQEFTVPHAKYTATISGLKPGVDYTITVYAVTYYAQENYKEIPISINYRTEIDKPSQHHHHHH
notes: captured by anti-His mAb
For B8, the kon (human IL-23 [2]) was 163000 M⁻¹ s⁻¹ and the “Kit 225 pSTAT3 IC50 (nM)” value (human IL-23 [1]) was 0.6 nM.

B9: 1490H08 (designed binder)
chain: MGVSDVPRDLEVVAATPTSLLISWGHYPLHIRYYRITYGETGGNSPVQEFTVPNTSHTATISGLKPGVDYTITVYAVTYYNEADYSQIPISINYRTEIDKPSQHHHHHH
notes: captured by anti-His mAb
Binder B9 has a Kd (human IL-23 [2]) of 3.5 nM, a koff (human IL-23 [2]) of 0.000587 s⁻¹ and a kon (human IL-23 [2]) of 167000 M⁻¹ s⁻¹.

B10: 1437G04 (designed binder)
chain: MGVSDVPRDLEVVAATPTSLLISWGHYPLHVRYYRITYGETGGNSPVQEFTVPYYHYTATISGLKPGVDYTITVYAVTYYNEADYSQIPISINYRTEIDKPSQHHHHHH
notes: captured by anti-His mAb
B10 was tested, and the Kd (human IL-23 [2]) was 3.3 nM, the koff (human IL-23 [2]) was 0.000446 s⁻¹ and the kon (human IL-23 [2]) was 134000 M⁻¹ s⁻¹. The “Kit 225 pSTAT3 IC50 (nM)” value (human IL-23 [1]) was 3.3 nM.

B11: 1487D09 (designed binder)
chain: MGVSDVPRDLEVVAATPTSLLISWGHYPMHIRYYRITYGETGGNSPVQEFTVPRSRHTATISGLKPGVDYTITVYAVTYYNEADYSQIPISINYRTEIDKPSQHHHHHH
notes: captured by anti-His mAb
B11 gave a Kd (human IL-23 [2]) of 1.7 nM, a koff (human IL-23 [2]) of 0.00025 s⁻¹ and a kon (human IL-23 [2]) of 150000 M⁻¹ s⁻¹. For the same binder, the “Kit 225 pSTAT3 IC50 (nM)” value (human IL-23 [1]) was 2 nM.

B12: 1491A05 (designed binder)
chain: MGVSDVPRDLEVVAATPTSLLISWGHYPLHVRYYRITYGETGGNSPVQEFTVPSQVYTATISGLKPGVDYTITVYAVTYYAQENYKEIPISINYRTEIDKPSQHHHHHH
notes: captured by anti-His mAb
B12 gave a Kd (human IL-23 [2]) of 2.1 nM, a koff (human IL-23 [2]) of 0.000408 s⁻¹ and a kon (human IL-23 [2]) of 198000 M⁻¹ s⁻¹. The “Kit 225 pSTAT3 IC50 (nM)” value (human IL-23 [1]) was 0.3 nM.

B13: 1490G02 (designed binder)
chain: MGVSDVPRDLEVVAATPTSLLISWGHYPMHVRYYRITYGETGGNSPVQEFTVPPRYHTATISGLKPGVDYTITVYAVTYYMEEKYAVIPISINYRTEIDKPSQHHHHHH
notes: captured by anti-His mAb
Work on B13 yielded a Kd (human IL-23 [2]) of 1.7 nM, a koff (human IL-23 [2]) of 0.000332 s⁻¹ and a kon (human IL-23 [2]) of 197000 M⁻¹ s⁻¹. For the same binder, the “Kit 225 pSTAT3 IC50 (nM)” value (human IL-23 [1]) was 0.4 nM.
